Measured values published in patent US20260167699A1 (Chugai, published 2026).

Legend:
Assay in all cases: SPR; % of GpH7-A5/GpH7-B3/GpL16-k0
[1] = biological target: T1, FcγRIIa(H) extracellular domain with C-terminal His tag (human, UniProt P12318 34-217)
T1 construct: extracellular domain; H131 allotype; also called 2aH; CD32
T1 sequence: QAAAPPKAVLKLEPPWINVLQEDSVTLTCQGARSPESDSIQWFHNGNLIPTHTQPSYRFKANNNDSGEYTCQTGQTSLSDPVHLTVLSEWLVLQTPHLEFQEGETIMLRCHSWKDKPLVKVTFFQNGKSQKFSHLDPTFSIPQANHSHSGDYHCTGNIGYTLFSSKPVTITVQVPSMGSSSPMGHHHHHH

[2] = biological target: T2, FcγRIIa(R) extracellular domain with C-terminal His tag (human, UniProt P12318 34-217)
T2 construct: extracellular domain; R131 allotype; also called 2aR; CD32
T2 sequence: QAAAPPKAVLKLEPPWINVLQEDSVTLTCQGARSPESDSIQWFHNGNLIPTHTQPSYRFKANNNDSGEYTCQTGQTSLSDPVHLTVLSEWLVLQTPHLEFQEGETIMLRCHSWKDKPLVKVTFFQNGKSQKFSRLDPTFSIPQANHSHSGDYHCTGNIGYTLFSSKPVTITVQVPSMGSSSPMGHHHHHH

[3] = biological target: T3, FcγRIIIa extracellular domain with C-terminal His tag (human, UniProt P08637 17-208)
T3 construct: extracellular domain; also called 3a; CD16

[4] = biological target: T4, FcγRIa extracellular domain with C-terminal His tag (human, UniProt P12314 16-292)
T4 construct: extracellular domain; also called 1a; CD64

[5] = biological target: T5, FcγRIIb extracellular domain with C-terminal His tag (human, UniProt P31994 43-217)
T5 construct: extracellular domain; also called 2b; CD32
T5 sequence: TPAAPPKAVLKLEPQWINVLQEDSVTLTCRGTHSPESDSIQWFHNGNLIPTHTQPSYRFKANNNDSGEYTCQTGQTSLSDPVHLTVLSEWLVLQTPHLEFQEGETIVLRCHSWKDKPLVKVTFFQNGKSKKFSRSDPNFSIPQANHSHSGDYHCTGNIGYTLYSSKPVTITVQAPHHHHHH

T3 sequence (P08637 other isoform, or with tags, fused parts or gaps): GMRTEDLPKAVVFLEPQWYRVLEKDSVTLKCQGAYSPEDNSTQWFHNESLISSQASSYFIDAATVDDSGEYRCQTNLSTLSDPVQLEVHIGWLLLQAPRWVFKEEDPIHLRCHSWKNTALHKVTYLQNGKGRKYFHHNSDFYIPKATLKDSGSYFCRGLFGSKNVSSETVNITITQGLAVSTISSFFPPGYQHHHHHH
T4 sequence (P12314 other isoform, or with tags, fused parts or gaps): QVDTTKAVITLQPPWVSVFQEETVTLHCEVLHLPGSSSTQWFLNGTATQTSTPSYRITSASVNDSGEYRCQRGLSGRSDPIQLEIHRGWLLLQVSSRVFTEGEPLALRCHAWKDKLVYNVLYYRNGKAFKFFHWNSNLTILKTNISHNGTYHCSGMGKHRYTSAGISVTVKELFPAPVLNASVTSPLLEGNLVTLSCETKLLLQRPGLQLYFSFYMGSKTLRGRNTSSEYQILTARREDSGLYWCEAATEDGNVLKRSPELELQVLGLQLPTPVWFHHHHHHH

Binder | He/Con 2aH [1] [%] | He/Con 2aR [2] [%] | He/Con 3a [3] [%] | He/Con 1a [4] [%] | He/Con 2b [5] [%]
GpH7-A5/GpH7-B3 variant I332_03V/GpL16-k0 (antibody, human IgG1, kappa, heterodimerized IgG1 (He Ab), mutation in one H chain only; also called He Ab) heavy 1: not shown heavy 2: not shown light: DIVMTQSPLSLPVTPGEPASISCQASESLVHSNRNTYLHWYLQKPGQSPQLLIYKVSNRFSGVPDRFSGSGSGTDFTLKISRVEAEDVGVYYCSQNTHVPPTFGQGTKVEIERTVAAPSVFIFPPSDEQLKSGTASVVCLLNNFYPREAKVQWKVDNALQSGNSQESVTEQDSKDSTYSLSSTLTLSKADYEKHKVYACEVTHQGLSSPVTKSFNRGEC | 108 | 87 | 85.2 | 100 | 89.5
GpH7-A5/GpH7-B3 variant I332_04F/GpL16-k0 (antibody, human IgG1, kappa, heterodimerized IgG1 (He Ab), mutation in one H chain only; also called He Ab) heavy 1: not shown heavy 2: not shown light: DIVMTQSPLSLPVTPGEPASISCQASESLVHSNRNTYLHWYLQKPGQSPQLLIYKVSNRFSGVPDRFSGSGSGTDFTLKISRVEAEDVGVYYCSQNTHVPPTFGQGTKVEIERTVAAPSVFIFPPSDEQLKSGTASVVCLLNNFYPREAKVQWKVDNALQSGNSQESVTEQDSKDSTYSLSSTLTLSKADYEKHKVYACEVTHQGLSSPVTKSFNRGEC | 108 | 104 | 89.3 | 106 | 115
GpH7-A5/GpH7-B3 variant I332_08L/GpL16-k0 (antibody, human IgG1, kappa, heterodimerized IgG1 (He Ab), mutation in one H chain only; also called He Ab) heavy 1: not shown heavy 2: not shown light: DIVMTQSPLSLPVTPGEPASISCQASESLVHSNRNTYLHWYLQKPGQSPQLLIYKVSNRFSGVPDRFSGSGSGTDFTLKISRVEAEDVGVYYCSQNTHVPPTFGQGTKVEIERTVAAPSVFIFPPSDEQLKSGTASVVCLLNNFYPREAKVQWKVDNALQSGNSQESVTEQDSKDSTYSLSSTLTLSKADYEKHKVYACEVTHQGLSSPVTKSFNRGEC | 94.9 | 91 | 76 | 104 | 91.3
GpH7-A5/GpH7-B3 variant I332_10E/GpL16-k0 (antibody, human IgG1, kappa, heterodimerized IgG1 (He Ab), mutation in one H chain only; also called He Ab) heavy 1: not shown heavy 2: not shown light: DIVMTQSPLSLPVTPGEPASISCQASESLVHSNRNTYLHWYLQKPGQSPQLLIYKVSNRFSGVPDRFSGSGSGTDFTLKISRVEAEDVGVYYCSQNTHVPPTFGQGTKVEIERTVAAPSVFIFPPSDEQLKSGTASVVCLLNNFYPREAKVQWKVDNALQSGNSQESVTEQDSKDSTYSLSSTLTLSKADYEKHKVYACEVTHQGLSSPVTKSFNRGEC | 112 | 113 | 213 | 109 | 158
GpH7-A5/GpH7-B3 variant I332_06M/GpL16-k0 (antibody, human IgG1, kappa, heterodimerized IgG1 (He Ab), mutation in one H chain only; also called He Ab) heavy 1: not shown heavy 2: not shown light: DIVMTQSPLSLPVTPGEPASISCQASESLVHSNRNTYLHWYLQKPGQSPQLLIYKVSNRFSGVPDRFSGSGSGTDFTLKISRVEAEDVGVYYCSQNTHVPPTFGQGTKVEIERTVAAPSVFIFPPSDEQLKSGTASVVCLLNNFYPREAKVQWKVDNALQSGNSQESVTEQDSKDSTYSLSSTLTLSKADYEKHKVYACEVTHQGLSSPVTKSFNRGEC | 114 | 108 | 92.5 | 105 | 116
GpH7-A5/GpH7-B3 variant I332_09D/GpL16-k0 (antibody, human IgG1, kappa, heterodimerized IgG1 (He Ab), mutation in one H chain only; also called He Ab) heavy 1: not shown heavy 2: not shown light: DIVMTQSPLSLPVTPGEPASISCQASESLVHSNRNTYLHWYLQKPGQSPQLLIYKVSNRFSGVPDRFSGSGSGTDFTLKISRVEAEDVGVYYCSQNTHVPPTFGQGTKVEIERTVAAPSVFIFPPSDEQLKSGTASVVCLLNNFYPREAKVQWKVDNALQSGNSQESVTEQDSKDSTYSLSSTLTLSKADYEKHKVYACEVTHQGLSSPVTKSFNRGEC | 122 | 118 | 189 | 106 | 163
GpH7-A5/GpH7-B3 variant I332_05P/GpL16-k0 (antibody, human IgG1, kappa, heterodimerized IgG1 (He Ab), mutation in one H chain only; also called He Ab) heavy 1: not shown heavy 2: not shown light: DIVMTQSPLSLPVTPGEPASISCQASESLVHSNRNTYLHWYLQKPGQSPQLLIYKVSNRFSGVPDRFSGSGSGTDFTLKISRVEAEDVGVYYCSQNTHVPPTFGQGTKVEIERTVAAPSVFIFPPSDEQLKSGTASVVCLLNNFYPREAKVQWKVDNALQSGNSQESVTEQDSKDSTYSLSSTLTLSKADYEKHKVYACEVTHQGLSSPVTKSFNRGEC | 69.9 | 80.5 | 56.3 | 99.2 | 83.7

Second part, the binder after the results:

He/Con 2aH [1] [%] | He/Con 2aR [2] [%] | He/Con 3a [3] [%] | He/Con 1a [4] [%] | He/Con 2b [5] [%] | Binder
119 | 104 | 110 | 104 | 118 | GpH7-A5/GpH7-B3 variant I332_14T/GpL16-k0 (antibody, human IgG1, kappa, heterodimerized IgG1 (He Ab), mutation in one H chain only; also called He Ab) heavy 1: not shown heavy 2: not shown light: DIVMTQSPLSLPVTPGEPASISCQASESLVHSNRNTYLHWYLQKPGQSPQLLIYKVSNRFSGVPDRFSGSGSGTDFTLKISRVEAEDVGVYYCSQNTHVPPTFGQGTKVEIERTVAAPSVFIFPPSDEQLKSGTASVVCLLNNFYPREAKVQWKVDNALQSGNSQESVTEQDSKDSTYSLSSTLTLSKADYEKHKVYACEVTHQGLSSPVTKSFNRGEC
113 | 97.6 | 89 | 100 | 103 | GpH7-A5/GpH7-B3 variant I332_16H/GpL16-k0 (antibody, human IgG1, kappa, heterodimerized IgG1 (He Ab), mutation in one H chain only; also called He Ab) heavy 1: not shown heavy 2: not shown light: DIVMTQSPLSLPVTPGEPASISCQASESLVHSNRNTYLHWYLQKPGQSPQLLIYKVSNRFSGVPDRFSGSGSGTDFTLKISRVEAEDVGVYYCSQNTHVPPTFGQGTKVEIERTVAAPSVFIFPPSDEQLKSGTASVVCLLNNFYPREAKVQWKVDNALQSGNSQESVTEQDSKDSTYSLSSTLTLSKADYEKHKVYACEVTHQGLSSPVTKSFNRGEC
114 | 98.3 | 84.9 | 99.3 | 99.6 | GpH7-A5/GpH7-B3 variant I332_18N/GpL16-k0 (antibody, human IgG1, kappa, heterodimerized IgG1 (He Ab), mutation in one H chain only; also called He Ab) heavy 1: not shown heavy 2: not shown light: DIVMTQSPLSLPVTPGEPASISCQASESLVHSNRNTYLHWYLQKPGQSPQLLIYKVSNRFSGVPDRFSGSGSGTDFTLKISRVEAEDVGVYYCSQNTHVPPTFGQGTKVEIERTVAAPSVFIFPPSDEQLKSGTASVVCLLNNFYPREAKVQWKVDNALQSGNSQESVTEQDSKDSTYSLSSTLTLSKADYEKHKVYACEVTHQGLSSPVTKSFNRGEC
113 | 97.9 | 95.6 | 97.3 | 109 | GpH7-A5/GpH7-B3 variant I332_13S/GpL16-k0 (antibody, human IgG1, kappa, heterodimerized IgG1 (He Ab), mutation in one H chain only; also called He Ab) heavy 1: not shown heavy 2: not shown light: DIVMTQSPLSLPVTPGEPASISCQASESLVHSNRNTYLHWYLQKPGQSPQLLIYKVSNRFSGVPDRFSGSGSGTDFTLKISRVEAEDVGVYYCSQNTHVPPTFGQGTKVEIERTVAAPSVFIFPPSDEQLKSGTASVVCLLNNFYPREAKVQWKVDNALQSGNSQESVTEQDSKDSTYSLSSTLTLSKADYEKHKVYACEVTHQGLSSPVTKSFNRGEC
119 | 109 | 92.4 | 101 | 112 | GpH7-A5/GpH7-B3 variant I332_15Y/GpL16-k0 (antibody, human IgG1, kappa, heterodimerized IgG1 (He Ab), mutation in one H chain only; also called He Ab) heavy 1: not shown heavy 2: not shown light: DIVMTQSPLSLPVTPGEPASISCQASESLVHSNRNTYLHWYLQKPGQSPQLLIYKVSNRFSGVPDRFSGSGSGTDFTLKISRVEAEDVGVYYCSQNTHVPPTFGQGTKVEIERTVAAPSVFIFPPSDEQLKSGTASVVCLLNNFYPREAKVQWKVDNALQSGNSQESVTEQDSKDSTYSLSSTLTLSKADYEKHKVYACEVTHQGLSSPVTKSFNRGEC
104 | 73.5 | 78.1 | 102 | 60.9 | GpH7-A5/GpH7-B3 variant I332_12R/GpL16-k0 (antibody, human IgG1, kappa, heterodimerized IgG1 (He Ab), mutation in one H chain only; also called He Ab) heavy 1: not shown heavy 2: not shown light: DIVMTQSPLSLPVTPGEPASISCQASESLVHSNRNTYLHWYLQKPGQSPQLLIYKVSNRFSGVPDRFSGSGSGTDFTLKISRVEAEDVGVYYCSQNTHVPPTFGQGTKVEIERTVAAPSVFIFPPSDEQLKSGTASVVCLLNNFYPREAKVQWKVDNALQSGNSQESVTEQDSKDSTYSLSSTLTLSKADYEKHKVYACEVTHQGLSSPVTKSFNRGEC
